Test results published in the nanobody polyreactivity screen of Harvey et al. (2022).

assay: yeast display, Sf9 membrane polyspecificity reagent, FACS + sequencing; frameworks hold sequencing errors
Summary of the method: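 A synthetic nanobody library was expressed on Saccharomyces cerevisiae BJ5465 by galactose induction for 36–48 hours. The library was stained for 1 hour at 4 °C with 10% biotinylated, detergent-solubilized Sf9 membrane reagent and enriched with streptavidin microbeads before FACS. Low and high (top ~1%) gates were set on anti-HA fluorescence for expression and streptavidin fluorescence for reagent binding, and each polyreactivity label reflects the gate of origin.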

Which “polyreactivity (PSR sort gate)” value does the source give for “QVQLVESGGGLVQAGGSLRLTCAASGSIFRTNTMGWYRQAPGKVRELVAAITAIGDSTYYADSVKGRFTISRDNANNTVYLQMNSLKPEDTAVYYCAAEKVSWGYHFYSSYDYWGQGTQVTVSS” here?
Its value is “low polyreactivity”.

With “QVQLVESGGGLVQAGGSLRLTCAASGSIFTAYAMRLYRQAPGKERELVAAIDDSGDSTYYADSVKGRFTISRDNAKITVYLQMNSLKPEDTAVYYCKAEYRVNKEYDYWGQGTQVTVSS” as the sequence, how does the “polyreactivity (PSR sort gate)” value read?
The value was “low polyreactivity”.

Which “polyreactivity (PSR sort gate)” value does the source give for “QVQLVESGGGLVQAGGSLRLTCAASGSIFTAYTMGWYRQAPGKERDLVAAITERGGSTYYADSVKGRFTISRDNAKNTVYLQMNRMKPEDSAVYYCAASTLKDIYLWFRVDYWGQGTHVTVSS” here?
Its value is “low polyreactivity”.

With “QVQLVESGGGLVQAGGSLRLTCAASGSIFYFNTMGWYRQAPGKERELVAVISRRGGSTYYADSVKGRFTISRDNAKNTVYLQMNSLKPEDTAVYYCNAEVFDLWRSFLSPYEYWGQGTQVTVSS” as the sequence, how does the “polyreactivity (PSR sort gate)” value read?
Its value is “low polyreactivity”.

With “QVQLVESGGGLVQAGGSLRLTCAASGSIFYYYAMGWYRQATGKERELVAAINSGVSTYYADSVKGRFTISRDNANNTVYLQMNSLKPDDTAVYYCAAPGHNLFGSWFSWTPDTYDYWGQGTQVTVSS” as the sequence, how does the “polyreactivity (PSR sort gate)” value read?
Its value is “low polyreactivity”.

For “QVQLVESGGGLVQAGGSLRLTCAASGSILDYYVMGWYRQAPAKEREMVAAIRGGGSTYYADSVKGRFTISRDNAKNTVYLQMNSLKPEDTAVYYCAKDSQTARDFDYWGQGSQVTVSS”, which “polyreactivity (PSR sort gate)” value is on record?
Its value is “low polyreactivity”.

With “QVQLVESGGGLVQAGGSLRLTCAASGSIYKYKAMGWYRQAPGKERELVAAIRWSGVGTRYADSVKGRFTISRDNAKNSLYLQMNSLKREDTAVYYCAADVSKYHDGHEYDYWGQGTQVTVSS” as the sequence, how does the “polyreactivity (PSR sort gate)” value read?
The value was “low polyreactivity”.

With “QVQLVESGGGLVQAGGSLRLTCAASGSTFDYNTMGWYRPAPGKETELVAAISESGGSTYYADSVKGRFTISRDNAKNTVYLQMNSLTPEDTAVYYCATDDFGGYFGEYDYWGQGTQVTVSS” as the sequence, how does the “polyreactivity (PSR sort gate)” value read?
Its value is “low polyreactivity”.

Which “polyreactivity (PSR sort gate)” value does the source give for “QVQLVESGGGLVQAGGSLRLTCAASGSTFGWYAMGWYRQAPGKGRGVVAAITGDSASTYYADSVKGRFTISRDNAKNTVYLQTNSLKPEDTAVYYCAATKFSAFGSPPLIGYGYWGQGTQVTVSS” here?
Its value is “low polyreactivity”.

With “QVQLVESGGGLVQAGGSLRLTCAASGSTFIFKKYVMGWYRQAPGSERELVAVISRRGDSTYYADSVKRPFTISRDNAKNTVYLQMNSLKPEDTAVYYCGAGYSTAGLARYDYWGQGTQVTVSS” as the sequence, how does the “polyreactivity (PSR sort gate)” value read?
The value was “high polyreactivity”.

With “QVQLVESGGGLVQAGGSLRLTCAASGSTFKYYAMGWYRQAPGKERELVAAIDWNGGRTYYADSVKGRFTISRDNAKNTVYLQMNSLKPEDTAVYYCAKLGRAAQGNYYWGQGTQVTVSS” as the sequence, how does the “polyreactivity (PSR sort gate)” value read?
Its value is “high polyreactivity”.

Which “polyreactivity (PSR sort gate)” value does the source give for “QVQLVESGGGLVQAGGSLRLTCAASGSTFSANAMGWYRPGPGKERELVAGISRSGGRTYYADSVKGRFTISRDNAKNTVYLQMNSLKPEDTAVYFCNDRRRGAGGYDYWGQGTQVTVSS” here?
The value was “high polyreactivity”.

For “QVQLVESGGGLVQAGGSLRLTCAASGSTFSRYVIGWYRQEPGKERELVAAISRSGSTYYADSVKGRFTISRDNAKNTVYLQMNSLKPEDTAVYYCAASGSKSAGYGYWGQGTQVTVSS”, which “polyreactivity (PSR sort gate)” value is on record?
Its value is “high polyreactivity”.

Which “polyreactivity (PSR sort gate)” value does the source give for “QVQLVESGGGLVQAGGSLRLTCAASGSTFVLYARGWYRQAPGKERELVAAITRRGGDTYYADSVKGRFTISRDNAKNTVYLQMNSLKPEDTAVYFCATDYTTYGRYDYWGHGTQVTVSS” here?
Its value is “low polyreactivity”.

Which “polyreactivity (PSR sort gate)” value does the source give for “QVQLVESGGGLVQAGGSLRLTCAASGSTLYVYPMGWYRPAPGKERELVASINSGGSTNYADSVKGRFSISRDNAKNTVYLQMNSLKRVDTAVYYCNAEYYGWFHHYDYWGQGTQVTVSS” here?
Its value is “high polyreactivity”.

With “QVQLVESGGGLVQAGGSLRLTCAASGYIFLQYAMGWYRPAPGKERELVAAITYNGGITYYADSVKGRFTISRDNAKNTVYLQRNSLKPEDTAVYYCAADKNQDVSYVGFDYWGQGTQVTVSS” as the sequence, how does the “polyreactivity (PSR sort gate)” value read?
The value was “low polyreactivity”.

For “QVQLVESGGGLVQAGGSLRLTCAASGYIFPYNVMGWYRQAPGKERELVAAITWRVVRTYYADSVKGRFTISRDNAKNTVYLQMNSLKPEDTAVYYCAALSRQSGDYWGQGTQVTVSS”, which “polyreactivity (PSR sort gate)” value is on record?
The value was “high polyreactivity”.

For “QVQLVESGGGLVQAGGSLRLTCAASGYIFYTYAMGWYRQAPGKERELVAGITGSGGSTYYADSVKGRFTISRDNAKNTVYLQMNSLKPEDTAVYYCAKDIYQIGYRRYDSWGQGTQVTVSS”, which “polyreactivity (PSR sort gate)” value is on record?
Its value is “low polyreactivity”.

For “QVQLVESGGGLVQAGGSLRLTCAASGYTFRGYAMGWYRQAPGKEREFVAAINWSDGSTYYADSVKGRFTISRDNAKNTVYLQMNSLKPEDTAVYYCNADQYYRVPDNYWGQGTQVTVSS”, which “polyreactivity (PSR sort gate)” value is on record?
The value was “low polyreactivity”.

Which “polyreactivity (PSR sort gate)” value does the source give for “QVQLVESGGGLVQAGGSLRLTCAASGYTFWLNGMGWYRHAPGKERELVAAISSSGGSTYYADSVKGRFTISRDNAKNTVYLQMNSLKPEDTAVYDCAVDAYWRHWYYPYESHHDYWGQGTQVTVST” here?
Its value is “low polyreactivity”.

For “QVQLVESGGGLVQAGGSLRLTCAASGYTFYYAMGWYRQAPGKERELVAAITRGGSTYYADSVKGRFTISRDNAKNTVYLQMNSLKPEDTAVYYCATEYHAHYASRALYGYDHWGQGTQVTVSS”, which “polyreactivity (PSR sort gate)” value is on record?
Its value is “low polyreactivity”.

Which “polyreactivity (PSR sort gate)” value does the source give for “QVQLVESGGGLVQAGGSLRLTCAASVRTCYSYALGWYRQEPGKEMELVASISSGGGTNYADSVKGRFTISRYNAKNTVFLQMNSLKPEDTAVYYFAAYSSWGGFDYWGQGTQLTVSS” here?
Its value is “low polyreactivity”.

For “QVQLVESGGGLVQAGGSLRLTSADSGSTFSFSAMRWYRQAPGKERELVAAIRSSVGSTYYADSVKGRFTISRDNAKNTVYLQMNSLKPEDTAVYNCAATTHWFRSYREFYYWGQGTQVTVSS”, which “polyreactivity (PSR sort gate)” value is on record?
Its value is “high polyreactivity”.

With “QVQLVESGGGLVQAGGSLRLTWEAYGFTFKYYPMGWYRQAPGKEWELVADITRSGGSTYYADSVKGRFTISRDNAKITVYLEMYILKPEDTAVYYCAVDPVRYQYSYDYWCQGTQVTVSS” as the sequence, how does the “polyreactivity (PSR sort gate)” value read?
The value was “high polyreactivity”.

For “QVQLVESGGGLVQAGGSLRVICAASGSTFLENAMGWYRQAPGKERELVAAISRSGARTYYADSVKGRFTISRDNAKNTVYLQMNSLKPEDTAVYYCAASHGKNKASGPMDYWGQGTQVTVSS”, which “polyreactivity (PSR sort gate)” value is on record?
Its value is “high polyreactivity”.

Which “polyreactivity (PSR sort gate)” value does the source give for “QVQLVESGGGLVQAGGSLRVSCAASGFIFLYYAMGWYRQAPGKERELVADISRGADTKYADSVKGRFTISRDNAKNTVYLQMNSLKPEDTAVYYCATDITTFWFPYPGVELGYWGQGTQVTVSS” here?
Its value is “low polyreactivity”.

For “QVQLVESGGGLVQAGGSLRVSCAASGFIFTGYTMGWYRQAPGKERELLAAVSYRGGSTYYADSVKGRFTISRDNAKNTVYLQMNSLKPEDTAVNYCNAVWSNFRLGYDYWGQGTQVTVSS”, which “polyreactivity (PSR sort gate)” value is on record?
The value was “high polyreactivity”.

With “QVQLVESGGGLVQAGGSLRVSCAASGFTFGPYDMGGSRQAPGKERELVAVIIGGDSTNYADSVKGRFTISRDNAKNTVYLQMNRLKPEDTAVYYCAADYIDRVGWMDYWGQGTQVTVSS” as the sequence, how does the “polyreactivity (PSR sort gate)” value read?
Its value is “low polyreactivity”.

Which “polyreactivity (PSR sort gate)” value does the source give for “QVQLVESGGGLVQAGGSLRVSCAASGFTFYVNAMGRYRQAPGKERELVAVISPSGGRTYYADSVKGRFTISRDNAKNTVYLQMNSLKPEDTAVYYCAAESGGYHWSTPYFDWLYYYWGQGTQVTVSS” here?
Its value is “low polyreactivity”.

Which “polyreactivity (PSR sort gate)” value does the source give for “QVQLVESGGGLVQAGGSLRVSCAASGIIFVVYDMGWYRQAPGKERELVAAINWSGGSTYYADSVKGRFTISRDNAKNTVYLQMNSLKPEDTAVYYCAAESFSDGSPYNYWGQGTQVTVSS” here?
Its value is “low polyreactivity”.
